In assay [1] the target is recombinant hSIRPa-His (Sino Biologicals, reference 11612-H08H) (human) (UniProt P78324). Nature of the assay: ELISA, immobilized hSIRPa-His, anti-human IgG detection. On the technique in general: In an ELISA, binding on a coated surface is turned into a signal by an enzyme label.
For assay [2], the target named is SIRPγ on peripheral human CD3+ T cells (human) (UniProt Q9P1W8). The assay is described as follows: flow cytometry on human CD3+ T cells, antibody at 10 micrograms/ml. A general note: A flow cytometer gives signals particle by particle.
SIRPγ on peripheral human CD3+ T cells (human), sequence (Q9P1W8 29-387): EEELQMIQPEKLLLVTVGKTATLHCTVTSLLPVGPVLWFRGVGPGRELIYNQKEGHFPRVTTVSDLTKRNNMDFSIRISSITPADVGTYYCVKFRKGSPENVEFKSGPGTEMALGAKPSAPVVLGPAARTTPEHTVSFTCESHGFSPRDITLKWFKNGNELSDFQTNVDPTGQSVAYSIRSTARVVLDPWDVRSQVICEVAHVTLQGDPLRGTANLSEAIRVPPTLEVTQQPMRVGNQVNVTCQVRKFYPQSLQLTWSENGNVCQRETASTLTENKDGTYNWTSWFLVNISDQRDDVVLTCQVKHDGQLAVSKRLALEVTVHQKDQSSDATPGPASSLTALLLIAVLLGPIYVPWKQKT
The target is the same in assay [3]. The assay is described as follows: flow cytometry on peripheral human CD3+ T cells, 10 µg/ml; Exp 1 HV1.
For assay [4] the target is unchanged. Nature of the assay: flow cytometry on peripheral human CD3+ T cells, 10 µg/ml; Exp 1 HV2.
In assay [5] the target is SIRPa on human monocytes (human) (UniProt P78324). Nature of the assay: flow cytometry on human monocytes v1/v1 (Fc receptors blocked), PE anti-human Fc; readout MFI.
For assay [6], the target named is recombinant hSIRPb-His (Antibodies-online, reference ABIN3077231) (human) (UniProt Q5TFQ8). The assay is described as follows: BLI (Blitz): SIRPb-His on Ni-NTA biosensor, antibody at 20 µg/ml; 120 s association, 120 s dissociation.
recombinant hSIRPb-His (Antibodies-online, reference ABIN3077231) (human), sequence (Q5TFQ8 30-371): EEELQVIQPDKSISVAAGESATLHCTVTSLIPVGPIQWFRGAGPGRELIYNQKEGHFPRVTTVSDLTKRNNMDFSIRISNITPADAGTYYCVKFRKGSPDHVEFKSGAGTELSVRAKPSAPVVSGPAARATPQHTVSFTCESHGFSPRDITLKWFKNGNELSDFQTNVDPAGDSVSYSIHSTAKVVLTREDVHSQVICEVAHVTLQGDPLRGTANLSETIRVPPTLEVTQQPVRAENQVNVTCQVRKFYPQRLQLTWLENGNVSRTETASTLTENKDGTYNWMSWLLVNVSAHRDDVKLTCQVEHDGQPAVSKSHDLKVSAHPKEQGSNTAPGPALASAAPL
Assay [7] concerns the target SIRPa on human monocytes (human) (UniProt P78324). Nature of the assay: flow cytometry on human monocytes v1/v1 (Fc receptors blocked), PE anti-human Fc; readout % stained monocytes.
Assay [8] has as its target recombinant hSIRPa-His (Sino Biologicals, reference 11612-H08H) (human) (UniProt P78324). Nature of the assay: SPR (Biacore 3000); SIRPa-His immobilised on a CM5 chip (500 RU), antibody injected; 3 min association, 10 min dissociation.
Assay [9] deals with recombinant hSIRPg-His (Sino Biologicals, reference 11828-H08H) (human) (UniProt Q9P1W8). Nature of the assay: BLI (Blitz): SIRPg-His on Ni-NTA biosensor, antibody at 10 µg/ml or 20 µg/ml (Example 9); 120 s association, 120 s dissociation.
recombinant hSIRPg-His (Sino Biologicals, reference 11828-H08H) (human), sequence (Q9P1W8 29-360): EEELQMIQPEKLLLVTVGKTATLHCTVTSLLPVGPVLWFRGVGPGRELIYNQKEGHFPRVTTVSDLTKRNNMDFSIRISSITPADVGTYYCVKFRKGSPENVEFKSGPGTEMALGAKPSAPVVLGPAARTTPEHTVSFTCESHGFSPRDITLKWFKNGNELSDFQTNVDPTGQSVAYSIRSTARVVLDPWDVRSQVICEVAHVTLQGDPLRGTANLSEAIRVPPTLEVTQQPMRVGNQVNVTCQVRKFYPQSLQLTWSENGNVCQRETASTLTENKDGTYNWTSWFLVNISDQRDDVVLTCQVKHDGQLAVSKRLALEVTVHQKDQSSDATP

B1: anti-human SIRPa antibody Kwar23 (Creative Biolabs) (antibody, from a related filing, V domains shown)
VH: EVQLQQSGAELVKPGASVKLSCTASGFNIKDYYIHWVQQRTEQGLEWIGRIDPEDGETKYAPKFQDKATITADTSSNTAYLHLSSLTSEDTAVYYCARWGAYWGQGTLVTVSS
VL: QIVLTQSPAIMSASPGEKVTLTCSASSSVSSSYLYWYQQKPGSSPKLWIYSTSNLASGVPARFSGSGSGTSYSLTISSMEAEDAASYFCHQWSSYPRTFGAGTKLELK
In the case of B1, the EC50 (commonly the concentration at which the effect is half-maximal) came to 3.3 ng/mL in assay [1], 0.378 µg/mL in [5] and 0.26 µg/mL in assay [7]. Further, in assay [2], the percent of T cells stained was more than 70%. The % of positive T-cells is 80% in assay [3] and 89.3% in assay [4]. The Kd (commonly the constant that tells how readily two partners part at equilibrium) in assay [6] stood at 2.77 nM; in assay [8], 0.367 nM; in assay [9], 2.14 nM.

These data come from patent US20250215108A1.
